# According to patent publication US20030049702:
# T1: in vitro translated FADD (from pcDNA3-Flag-FADD), Q13158
# T1 chain: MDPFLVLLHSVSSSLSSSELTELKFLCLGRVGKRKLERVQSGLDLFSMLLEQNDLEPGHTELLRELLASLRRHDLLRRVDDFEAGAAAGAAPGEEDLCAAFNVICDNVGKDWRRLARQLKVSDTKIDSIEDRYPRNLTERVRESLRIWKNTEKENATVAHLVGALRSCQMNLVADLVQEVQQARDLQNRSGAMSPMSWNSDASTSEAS
# Assays:
# [1] = biological target: T1, in vitro translated FADD (from …)
# [2] = biological target: DAP3-His6
protein,measurement,setting,value
in vitro translated pro-Casp8 (from pcDNA3Flag-pro-Casp8) (protein) MDFSRNLYDIGEQLDSEDLASLKFLSLDYIPQRKQEPIKDALMLFQRLQEKRMLEESNLSFLKELLFRINRLDLLITYLNTRKEEMERELQTPGRAQISAYRVMLYQISEEVSRSELRSFKFLLQEEISKCKLDDDMNLLDIFIEMEKRVILGEGKLDILKRVCAQINKSLLKIINDYEEFSKERSSSLEGSPDEFSNGEELCGVMTISDSPREQDSESQTLDKVYQMKSKPRGYCLIINNHNFAKAREKVPKLHSIRDRNGTHLDAGALTTTFEELHFEIKPHDDCTVEQIYEILKIYQLMDHSNMDCFICCILSHGDKGIIYGTDGQEAPIYELTSQFTGLKCPSLAGKPKVFFIQACQGDNYQKGIPVETDSEEQPYLEMDLSSPQTRYIPDEADFLLGMATVNNCVSYRNPAEGTWYIQSLCQSLRERCPRGDDILTILTEVNYEVSNKDDKKNMGKQMPQPTFTLRKKLVFPSD,caspase-8 activity (cleavage of Ac-IETD-AFC) in vitro,[1],˜3-fold increase in caspase-8 activity
same,caspase-8 activity (cleavage of Ac-IETD-AFC) in vitro,[2],increased protease activity by ˜5-fold
same,"caspase-8 activity (cleavage of Ac-IETD-AFC) in vitro, DAP3 and FADD added together",[2],˜10-fold increase in caspase-8 activity
